Laboratory results from article doi:10.1101/688531.
Several values for one entry are separate records, joined by “and”; a condition that tells them apart may be missing. Equal values may be shown once.

Molecular target: synthetic horse SLN (horse)
Assay: SDS-PAGE with immunoblot

In the case of synthetic horse SLN (peptide), the stoichiometry N is reported as 2 and 3.
